# Patent publication US20160046573A1, “IDENTIFYING PATIENT RESPONSE TO S1P RECEPTOR MODULATOR ADMINISTRATION” (Novartis AG, priority 2013, published 2016)
# Columns and labels:
# [1] = Inhibition of [14C]BAF312 biotransformation in HLM by CYP-specific chemical inhibitors; details: for Rate / Relative activity: 5 μM BAF312, HLM 0.1 mg/mL, 90 min
# Method: The incubations were carried out in 0.1 M phosphate buffer, pH 7.4. Typical incubations of 200 (or 400) μL total volume were prepared as follows: 10 μL of 100 mM MgCl2 (5 mM), stock solutions of CHAPS, substrate and microsomes or recombinant human cytochrome P450 isoenzymes were added to appropriate volume of the buffer. […] Reaction was started by addition of 20 μL of a fresh 10 mM NADPH (1 mM). The final concentrations are given in parentheses. The final concentrations of organic solvent were maximally 0.5% (v/v). For some experiments, higher incubation volumes were prepared by keeping proportionally the quantity of all solutions. The samples were incubated at 37° C. in a thermomixer (Eppendorf 5355) with agitation at 500 rpm.
# The incubation reactions were stopped and the protein was precipitated by addition of an equal volume of ice-cold 0.5% formic acid in acetonitrile. After 30 min at −80° C. (or overnight at −20° C.) the samples were centrifuged at 30,000×g for 15 min. The supernatant was withdrawn. Aliquots were analyzed by LSC (20 μL) and the supernatant was diluted appropriately with water to obtain a final solution containing less than 30% of acetonitrile. For samples with lower concentration in substrate, supernatants were evaporated to about the half of initial volumes under reduced pressure at 40° C. with SpeedVac® concentrator (model AES 2010, Savant Inc., Holbrook, N.Y., USA) then mixed with 0.5% formic acid in acetonitrile to obtain a final solution containing less 30% of acetonitrile. Sample solutions were analyzed by HPLC combined with radiodetection. (for HLPC method, see Section 1.6)
# The biotransformation of BAF312 was tested at 5 μM substrate concentration in the presence of the 8 individual chemical inhibitors.
# [2] = substrate: CCc1cc(/C(C)=N/OCc2ccc(C3CCCCC3)c(C(F)(F)F)c2)ccc1CN1CC(C(=O)O)C1; test: Enzyme mapping: metabolite formation by recombinant P450 isoenzyme; assay type: in vitro ADME, human; details: estimated by solving the Michaelis-Menten equation for the 2 substrate concentrations, pH 7.4
# Method: (§1) Microsomes prepared from baculovirus infected insect cells (BTI-TN-5B1-4) expressing the following human P450 enzymes and the insect cell membrane preparations (negative control) were obtained from BD Biosciences (Woburn, Mass., USA).
# (§2) The final concentrations are given in parentheses.
# (§3) After 30 min at −80° C. […] The supernatant was withdrawn. […] Sample solutions were analyzed by HPLC combined with radiodetection. (for HLPC method, see Section 1.6)
# Mean specific CYP enzyme concentrations in human liver microsomes were obtained from literature values (Rowland Yeo K, Rostami-Hodjegan A and Trucker GT (2004)] Abundance of cytochromes P450 in human liver: a meta-analysis. Br. J. Clinical Pharmacology; 57:687-688). For some recombinant human CYPs, the enzyme kinetic parameters were estimated by calculation assuming Michaelis-Menten type behavior for the two concentrations used, solving a linear equation system for 2 linear equations with 2 variables: […]
# Microsomes prepared from baculovirus infected insect cells (BTI-TN-5B1-4) expressing one single human cytochrome P450 isoenzyme were used to assess the involvement of specific enzymes in the biotransformation of [14C]BAF312. Incubation experiments with a panel of 21 recombinant human CYPs (CYP1A1, 1A2, 1B1, 2A6, 2B6, 2C8, 2C9*1, 2C18, 2C19, 2D6*1, 2E1, 2J2, 3A4, 3A5, 3A7, 4A11, 4F2, 4F3A, 4F3B, 4F12 and CYP19) were conducted under similar conditions for each isoenzyme with 10 and 40 μM BAF312 incubation and 30 pmol CYP/mL for 30 min. […] Lower metabolism activities were also observed in incubation with CYP3A4, while some trace metabolism was detected with other CYP isoenzymes (2B6, 2C8, 2C19, 2J2, 3A5, 1A1).
# [3] = substrate: CCc1cc(/C(C)=N/OCc2ccc(C3CCCCC3)c(C(F)(F)F)c2)ccc1CN1CC(C(=O)O)C1; test: Enzyme kinetics of [14C]BAF312 metabolism by rhCYP2C9; assay type: in vitro ADME, human; details: other: CYP 2C9; obtained from kinetic experiments; pH 7.4
# Method: The concentration-dependent kinetics of [^14C]BAF312 biotransformation (total metabolites) in rhCYP2C9 (50 pmol/mL) after 60 minutes incubation was plotted as Michaelis-Menten plot (upper) and as Eadie-Hofstee plot (V vs. V/S, bottom) fitted with substrate inhibition model using substrate concentrations 5-300 μM.
# as §1, §2, §3
# Enzyme kinetic parameters Vmax and Km of the biotransformation by HLM and major metabolizing enzymes were calculated by using SigmaPlot Version 8.0 (S1), Enzyme Kinetics module Version 1.1 software (SPSS Science Inc., Chicago, Ill., USA). The intrinsic clearance was calculated by the equation: CLint=Vmax/Km.
# Enzyme kinetics parameters of the isoenzymes CYP2C9 and CYP3A4 for BAF312 metabolism were determined by incubating different concentrations of [^14C]BAF312 with the isoenzyme.
molecule,measurement,setting,value
N[C@@H]1C[C@H]1c1ccccc1 (racemic) [Tranylcypromine],inhibition of BAF312 metabolism,"[1]; 2 μM and 10 μM inhibitor, 5 μM substrate concentration, HLM",11-29%
same,Rate,[1]; 2 μM inhibitor,15.3 pmol/min/mg
same,Relative activity,[1]; 2 μM inhibitor,89%
same,Rate,[1]; 10 μM inhibitor,12.2 pmol/min/mg
same,Relative activity,[1]; 10 μM inhibitor,71%
S=P(N1CC1)(N1CC1)N1CC1 [Triethylenethiophosphoramide],Rate,[1]; 5 μM inhibitor,18.3 pmol/min/mg
same,Relative activity,[1]; 5 μM inhibitor,106%
same,Rate,[1]; 20 μM inhibitor,18.8 pmol/min/mg
same,Relative activity,[1]; 20 μM inhibitor,109%
"CYP1A1 (Homo sapiens) (protein, purchased BD Biosciences 456211; host or cells: baculovirus infected insect cells (BTI-TN-5B1-4)) MLFPISMSATEFLLASVIFCLVFWVIRASRPQVPKGLKNPPGPWGWPLIGHMLTLGKNPHLALSRMSQQYGDVLQIRIGSTPVVVLSGLDTIRQALVRQGDDFKGRPDLYTFTLISNGQSMSFSPDSGPVWAARRRLAQNGLKSFSIASDPASSTSCYLEEHVSKEAEVLISTLQELMAGPGHFNPYRYVVVSVTNVICAICFGRRYDHNHQELLSLVNLNNNFGEVVGSGNPADFIPILRYLPNPSLNAFKDLNEKFYSFMQKMVKEHYKTFEKGHIRDITDSLIEHCQEKQLDENANVQLSDEKIINIVLDLFGAGFDTVTTAISWSLMYLVMNPRVQRKIQEELDTVIGRSRRPRLSDRSHLPYMEAFILETFRHSSFVPFTIPHSTTRDTSLKGFYIPKGRCVFVNQWQINHDQKLWVNPSEFLPERFLTPDGAIDKVLSEKVIIFGMGKRKCIGETIARWEVFLFLAILLQRVEFSVPLGVKVDMTPIYGLTMKHACCEHFQMQLRS",Km,[2]; other: CYP 1A1,25.5 µM
same,kcat,[2]; other: CYP 1A1,47.3 pmol/(min · nmol CYP)
same,kcat/Km,[2]; other: CYP 1A1,1.9 μL/(min. · nmol CYP)
"CYP2C19 (Homo sapiens) (protein, purchased BD Biosciences 456259; host or cells: baculovirus infected insect cells (BTI-TN-5B1-4)) MDPFVVLVLCLSCLLLLSIWRQSSGRGKLPPGPTPLPVIGNILQIDIKDVSKSLTNLSKIYGPVFTLYFGLERMVVLHGYEVVKEALIDLGEEFSGRGHFPLAERANRGFGIVFSNGKRWKEIRRFSLMTLRNFGMGKRSIEDRVQEEARCLVEELRKTKASPCDPTFILGCAPCNVICSIIFQKRFDYKDQQFLNLMEKLNENIRIVSTPWIQICNNFPTIIDYFPGTHNKLLKNLAFMESDILEKVKEHQESMDINNPRDFIDCFLIKMEKEKQNQQSEFTIENLVITAADLLGAGTETTSTTLRYALLLLLKHPEVTAKVQEEIERVIGRNRSPCMQDRGHMPYTDAVVHEVQRYIDLIPTSLPHAVTCDVKFRNYLIPKGTTILTSLTSVLHDNKEFPNPEMFDPRHFLDEGGNFKKSNYFMPFSAGKRICVGEGLARMELFLFLTFILQNFNLKSLIDPKDLDTTPVVNGFASVPPFYQLCFIPV",Km,[2]; other: CYP 2C19,140 µM
same,kcat,[2]; other: CYP 2C19,100 pmol/(min · nmol CYP)
same,kcat/Km,[2]; other: CYP 2C19,0.7 μL/(min. · nmol CYP)
"rhCYP2C9 (Homo sapiens) (protein, purchased BD Biosciences 456258; host or cells: baculovirus infected insect cells (BTI-TN-5B1-4)) MDSLVVLVLCLSCLLLLSLWRQSSGRGKLPPGPTPLPVIGNILQIGIKDISKSLTNLSKVYGPVFTLYFGLKPIVVLHGYEAVKEALIDLGEEFSGRGIFPLAERANRGFGIVFSNGKKWKEIRRFSLMTLRNFGMGKRSIEDRVQEEARCLVEELRKTKASPCDPTFILGCAPCNVICSIIFHKRFDYKDQQFLNLMEKLNENIKILSSPWIQICNNFSPIIDYFPGTHNKLLKNVAFMKSYILEKVKEHQESMDMNNPQDFIDCFLMKMEKEKHNQPSEFTIESLENTAVDLFGAGTETTSTTLRYALLLLLKHPEVTAKVQEEIERVIGRNRSPCMQDRSHMPYTDAVVHEVQRYIDLLPTSLPHAVTCDIKFRNYLIPKGTTILISLTSVLHDNKEFPNPEMFDPHHFLDEGGNFKKSKYFMPFSAGKRICVGEALAGMELFLFLTSILQNFNLKSLVDPKNLDTTPVVNGFASVPPFYQLCFIPV",Km,[3],34.5 µM
same,kcat,[3],2596 ± 233 pmol/min/nmol
same,kcat/Km,[3],1250 M⁻¹ s⁻¹
"CYP2C8 (Homo sapiens) (protein, purchased BD Biosciences 456252; host or cells: baculovirus infected insect cells (BTI-TN-5B1-4)) MEPFVVLVLCLSFMLLFSLWRQSCRRRKLPPGPTPLPIIGNMLQIDVKDICKSFTNFSKVYGPVFTVYFGMNPIVVFHGYEAVKEALIDNGEEFSGRGNSPISQRITKGLGIISSNGKRWKEIRRFSLTTLRNFGMGKRSIEDRVQEEAHCLVEELRKTKASPCDPTFILGCAPCNVICSVVFQKRFDYKDQNFLTLMKRFNENFRILNSPWIQVCNNFPLLIDCFPGTHNKVLKNVALTRSYIREKVKEHQASLDVNNPRDFIDCFLIKMEQEKDNQKSEFNIENLVGTVADLFVAGTETTSTTLRYGLLLLLKHPEVTAKVQEEIDHVIGRHRSPCMQDRSHMPYTDAVVHEIQRYSDLVPTGVPHAVTTDTKFRNYLIPKGTTIMALLTSVLHDDKEFPNPNIFDPGHFLDKNGNFKKSDYFMPFSAGKRICAGEGLARMELFLFLTTILQNFNLKSVDDLKNLNTTAVTKGIVSLPPSYQICFIPV",Km,[2]; other: CYP 2C8,2.9 µM
same,kcat,[2]; other: CYP 2C8,14.3 pmol/(min · nmol CYP)
same,kcat/Km,[2]; other: CYP 2C8,5 μL/(min. · nmol CYP)
"CYP2J2 (Homo sapiens) (protein, purchased BD Biosciences 456264; host or cells: baculovirus infected insect cells (BTI-TN-5B1-4)) MLAAMGSLAAALWAVVHPRTLLLGTVAFLLAADFLKRRRPKNYPPGPWRLPFLGNFFLVDFEQSHLEVQLFVKKYGNLFSLELGDISAVLITGLPLIKEALIHMDQNFGNRPVTPMREHIFKKNGLIMSSGQAWKEQRRFTLTALRNFGLGKKSLEERIQEEAQHLTEAIKEENGQPFDPHFKINNAVSNIICSITFGERFEYQDSWFQQLLKLLDEVTYLEASKTCQLYNVFPWIMKFLPGPHQTLFSNWKKLKLFVSHMIDKHRKDWNPAETRDFIDAYLKEMSKHTGNPTSSFHEENLICSTLDLFFAGTETTSTTLRWALLYMALYPEIQEKVQAEIDRVIGQGQQPSTAARESMPYTNAVIHEVQRMGNIIPLNVPREVTVDTTLAGYHLPKGTMILTNLTALHRDPTEWATPDTFNPDHFLENGQFKKREAFMPFSIGKRACLGEQLARTELFIFFTSLMQKFTFRPPNNEKLSLKFRMGITISPVSHRLCAVPQV",Km,[2]; other: CYP 2J2,374 µM
same,kcat,[2]; other: CYP 2J2,106.7 pmol/(min · nmol CYP)
same,kcat/Km,[2]; other: CYP 2J2,0.3 μL/(min. · nmol CYP)
